In patent US20190000964A1:

Tests used:
[1] = target: human CCR5 receptor (hCCR5) (human) (UniProt P51681); test: inhibition of gp120/sCD4 complex binding to CCR5-expressing Cf2Th cells by competing peptide
[2] = target: human CCR5 receptor (hCCR5) (human) (UniProt P51681); test: 0.5 nM non-labeled gp120 Bal against 0.5 nM FITC-gp120Bal on Cf2Th/synCCR5 cells with sCD4
[3] = target: human CCR5 receptor (hCCR5) (human) (UniProt P51681)

Chain of human CCR5 receptor (hCCR5) (human) (P51681 whole entry): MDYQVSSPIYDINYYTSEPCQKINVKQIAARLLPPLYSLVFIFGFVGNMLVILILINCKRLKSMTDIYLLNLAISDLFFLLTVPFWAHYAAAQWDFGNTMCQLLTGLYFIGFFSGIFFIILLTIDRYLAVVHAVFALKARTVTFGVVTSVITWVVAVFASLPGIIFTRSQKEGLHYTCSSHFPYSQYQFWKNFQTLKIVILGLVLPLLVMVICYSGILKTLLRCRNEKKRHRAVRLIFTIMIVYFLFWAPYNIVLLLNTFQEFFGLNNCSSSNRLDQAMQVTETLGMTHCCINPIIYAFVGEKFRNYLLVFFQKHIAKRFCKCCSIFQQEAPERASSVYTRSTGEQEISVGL

All D, ttnyt (peptide)
EC50 [1]: 2 nM

gp120 Bal-sCD4 complex (from UniProt P01730 26-396)
percent inhibition of FITC-gp120Bal binding [2]: > 80% | Kd [3]: 0.46 nM

gp120 CM235-sCD4 complex (from UniProt P01730 26-396)
Kd [3]: 0.77 nM
